Data taken from US20180186871A1 (SINGAPORE HEALTH SERVICES PTE, published 2018).

T1: human IL-11 (human, UniProt P20809 22-199)
T1 sequence (looked up): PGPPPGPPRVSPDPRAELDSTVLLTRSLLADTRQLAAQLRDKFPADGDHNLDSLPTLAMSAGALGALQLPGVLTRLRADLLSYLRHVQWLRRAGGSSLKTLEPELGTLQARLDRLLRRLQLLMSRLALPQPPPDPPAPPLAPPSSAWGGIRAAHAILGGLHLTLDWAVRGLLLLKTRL

B1: YU100-G10 (scFv)
scFv: QVQLVQSGGGVVQPGRSLRLSCAASGFTFSSYGMHWVRQAPGKGLEWVAVISYDGSNKYYADSVKGRFTISRDNSKNTLYLQMNSLRAEDTAVYYCAKIGATDPLDYWGQGTLVTVSSGSASAPKLEEGEFSEARVQSALTQPASVSGSLGQSITMSCTGTRRDVGGYDFVSWYQQYPGKAPKLIIYDVSNRPSGVSNRFTGSKSGNTASLTISGLQAEDEADYYCCSYAGTYTWVFGGGTKVTVL
B2: YU112-B06 (scFv, not shown: a dimerising Fc or GST)
scFv: QVQLVESGGGVVQPGRSLRLSCAASGFTFSSYGMHWVRQAPGKGLEWVAVISYDGSNKYYADSVKGRFTISRDNSKNTLYLQMNSLRAEDTAVYYCAKIGATDPLDYWGQGTLVTVSSGSASAPKLEEGEFSEARVQSALTQPASVSGSPGQSITISCTGTSSDVGGYNYVSWYQQHPGKAPKLMIYDVSNRPSGVSNRFSGSKSGNTASLTIFGLQAEDEADYYCSSYTSSSSWVFGGGTKLTVL
B3: YU100-G07 (scFv)
scFv: QVQLVESGGGVVQPGRSLRLSCAASGFTFSSYGMHWVRQAPGKGLEWVAVISYDGSNKYYADSVKGRFTISRDNSKNTLYLQMNSLRAEDTAVYYCAKIGATDPLDYWGQGTLVTVSSGSASAPKLEEGEFSEARVQSALTQPASVSGSPGQSITISCTGTSSDVGAYDYVSWYQQHPGKAPKLMIYDVTNRPSGVSNRFSGSKSGNTASLTISGLQAEDEADYYCASYTRSSVWVFGGGTKLTVL
B4: YU112-G06 (scFv)
scFv: QVQLQESGGGVVQPGRSLRLSCAASGFTFSSYGMHWVRQAPGKGLEWVAVISYDGSNKYYADSVKGRFTISRDNSKNTLYLQMNSLRAEDTAVYYCAKIGATDPLDYWGQGTLVTVSSGSASAPKLEEGEFSEARVQSALTQPRSVSGSPGQSVTISCTGTISDVGGYNYVSWYQQHPGKAPKLMIYDVTKRRSGVPDRFSGSKSGNTASLTISGLQAEDEAGYYCSSYAGGYTWVFGGGTELTVL
B5: YU112-D08 (scFv)
scFv: QVQLVESGGGVVQPGRSLRLSCAASGFTFSSYGMHWVRQAPGKGLEWVAVISYDGSNKYYADSVEGRFTISRDNSKNTLYLQMNSLRAEDTAVYYCAKIGATDPLDYWGQGTLVTVSSGSASAPKLEEGEFSEARVQSALTQPRSVSGSPGQSVTISCTGTISDVGGYNYVSWYQQHPGKAPKLMIYDVTKRPSGVPDRFSGSKSGNTASLTISGLQAEDEAGYYCSSYAGSYTWVFGGGTELTVL
B6: YU100-E11 (scFv)
scFv: QVQLVESGGGVVQPGRSLRLSCAASGFTFSSYGMHWVRQAPGKGLEWVAVISYDGSNKYYADSVKGRFTISRDNSKNTLYLQMNSLRAEDTAVYYCARIMGYDYGDYDVVDYWGQGTLVTVSSGSASAPKLEEGEFSEARVQSALTQPRSVSGSPGQSVTISCTGTSSDVGGYNYVSWYQQHPGKAPKLMIYDVSKRPSGVPDRFSGSKSGNTASLTISGLQAEDEADYYCCSYAGSYTWVFGGGTKLTVL
B7: YU112-C05 (scFv, not shown: a dimerising Fc or GST)
scFv: EVQLVESGGGVVQPGRSLRLSCAASGFTFSSYAMHWVRQAPGKGLEWVAVISYDGSNKYYADSVKGRFTISRDNSKNTLYLQMNSLRAEDTAVYYCARIMGYDYGDYDVVDYWGQGTLVTVSSGSASAPKLEEGEFSEARVQSALTQPRSVSGSPGQSVTISCTGTISDVGGYNYVSWYQQHPGKAPKLMIYDVTKRPSGVPDRFSGSKSGNTASLTISGLQAEDEAGYYCSSYAGSYTWVFGGGTELTVL
B8: YU100-E08 (scFv)
scFv: QVQLVQSGGGVVQPGRSLRLSCAASGFTFSSYAMHWVRQAPGKGLEWVAVISYDGSNKYYADSVKGRFTISRDNSKNTLYLQMNSLRAEDTAVYYCARIMGYDYGDYDVVDYWGQGTLVTVSSGSASAPKLEEGEFSEARVQSALTQPRSVSGSPGQSVTISCTGTSSDVGGYNYVSWYQQHPGKAPKLMIYDVSRRPSGVPDRFSGSKSGNTASLTISGLQAEDEADYYCCSYAGNYTWMFGGGTKLTVL
B9: YU100-H09 (scFv, not shown: a dimerising Fc or GST)
scFv: QVQLVQSGGGVVQPGRSLRLSCAASGFTFSSYAMHWVRQAPGKGLEWVAVISYDGSNKYYADSVKGRFTISRDNSKNTLYLQMNSLRAEDTAVYYCARIMGYDYGDYDVVDYWGQGTLVTVSSGSASAPKLEEGEFSEARVQSALTQPASVSGSPGQSITISCTGTSSDVGGYNYVSWYQQHPGKAPKLMIYDVSNRPSGVSNRFSGSKSGNTASLTISGLQAEDEADYYCCSYAGSYTWVFGGGTKLTVL
B10: YU100-H04 (scFv)
scFv: QVQLVESGGGVVQPGRSLRLSCAASGFTFSSYAMHWVRQAPGKGLEWVAVISYDGSNKYYADSVKGRFTISRDNSKNTLYLQMNSLRAEDTAVYYCARIMGYDYGDYDVVDYWGQGTLVTVSSGSASAPKLEEGEFSEARVQSALTQPASVSGSPGQSITISCTGTSSDIGVYNYVSWYQQHPGKAPKLMIYDVSKRPSGVPDRFSGSKSGNTASLTISGLQAEDEADYYCCSYAGSYTWVFGGGTKLTVL
B11: YU100-H02 (scFv)
scFv: QVQLQQSGGGVVQPGRSLRLSCAASGFTFSSYGMHWVRQAPGKGLEWVAVISYDGSNKYYADSVKGRFTISRDNSKNTLYLQMNSLRAEDTAVYYCARIMGYDYGDYDVVDYWGQGTLVTVSSGSASAPKLEEGEFSEARVQSALTQPRSVSRSPGQSVTISCTGTSSDVGTYNYVSWYQQHPGKAPKLMIYDVSKRPSGVPDRFSGSKSGNTASLTISGLQAEDEADYYCCSYAGFYTWVFGGGTKLTVL
B12: YU100-F07 (scFv)
scFv: QVQLVESGGGVVQPGRSLRLSCAASGFTFSSYAMHWVRQAPGKGLEWVAVISYDGSNKYYADSVKGRFTISRDNSKNTLYLQMNSLRAEDTAVYYCARIMGYDYGDYDVVDYWGQGTLVTVSSGSASAPKLEEGEFSEARVQSALTQPRSVSVSPGQSVTISCTGTSSDVGGYEYVSWYQQHPGKAPKLMIYDVTKRPSGVPDRFSGSKSGNTASLTISGLQGEDAADYYCCSYAGSYTWVFGGGTTVTVL
B13: YU100-E09 (scFv)
scFv: QVQLVESGGGVVQPGRSLRLSCAASGFTFSSYAMHWVRQAPGKGLEWVAVISYDGSNKYYADSVKGRFTISRDNSKNTLYLQMNSLRAEDTAVYYCARIMGYDYGDYDVVDYWGQGTLVTVSSGSASAPKLEEGEFSEARVQSALTQPRSVSGSPGQSVTISCTGTSSDVGDYDYVSWYQQHPGKAPKLIIYDVTKRPSGIPDRFSGSKSGNTASLTISGLQAEDEADYYCCSYAGSYTWVFGRGTKLTVL
B14: YU112-F05 (scFv)
scFv: EVQLVQSGGGVVQPGRSLRLSCAASGFTFGSYGMHWVRQAPGKGLEWVAVISYDGSNKYYADSVKGRFTISRDNSKNTLYLQMNSLRAEDTAVYYCAKIGATDPLDYWGQGTLVTVSSGSASAPKLEEGEFSEARVQSALTQPRSVSGSPGQSVTISCTGTSSDVGGYNYVSWYQQHPGKAPKLIIYDVNNRPSGVSNRFSASKSGNTASLTISGLQAEDEADYYCNSYTSGSTWVFGGGTKLTVL
B15: YU100-F01 (scFv)
scFv: QVQLVQSGGGVVQPGRSLRLSCAASGFTFSSYGMHWVRQAPGKGLEWVAVISYDGSNKYYADSVKGRFTISRDNSKNTLYLQMNSLRAEDTAVYYCAKIGATDPLDYWGQGTLVTVSSGSASAPKLEEGEFSEARVQSALTQPASVSGSPGQSITISCTGTGSDVGAYDYVSWYQQHPGKAPKLMIYDVNNRPSGVSNRFSGSKSGNTASLTISGLQAEDEAEYYCSSFATSISWVFGGGTRLTVL
B16: YU112-C03 (scFv, not shown: a dimerising Fc or GST)
scFv: QVQLVESGGGVVQPGRSLRLSCAASGFTFSSYGMHWVRQAPGKGLEWVAVISYDGSNKYYADSVKGRFTISRDNSKNTLYLQMNSLRAEDTAVYYCAKGGKSYYGFDYWGQGTLVTVSSGSASAPKLEEGEFSEARVDSVMTQSPSSLSASVGDRVTITCRASQAINSYLNWYQQKPGKAPKLLIYAASSLQSGVPSRFSGSGSGTDFTLTISGLQPEDFATYYCQQSYSTPSWTFGQGTKVEIK

Biological target: T1, human IL-11
Test: cell-based or functional assay
Further: test concentration or dose not given here.

In order of rising “MMP2 production (ng/ml), TGFB1-stimulated human atrial fibroblasts, Experiment 1 (NEG 42.7, POS 70.2)” value:
1. B8  48.2 ng/mL
2. B6  49.1 ng/mL
3. B2  49.7 ng/mL
4. B5  50.3 ng/mL
5. B13  51.7 ng/mL
6. B15  52.8 ng/mL
7. B9  52.9 ng/mL
8. B12  53.1 ng/mL
9. B14  53.9 ng/mL
10. B1  54 ng/mL
11. B4  55 ng/mL
12. B7  55.2 ng/mL
13. B11  57.5 ng/mL
14. B16  57.6 ng/mL
15. B10  58.5 ng/mL
16. B3  59 ng/mL

In order of rising “MMP2 production (ng/ml), TGFB1-stimulated human atrial fibroblasts, Experiment 2 (NEG 36.2, POS 62.3)” value:
1. B9  39.6 ng/mL
2. B15  39.9 ng/mL
3. B6  41.9 ng/mL
4. B5  42.5 ng/mL
5. B2  43.9 ng/mL
6. B13  44.4 ng/mL
7. B1  45.4 ng/mL
8. B12  46.6 ng/mL
9. B4  47.8 ng/mL
10. B14  48.5 ng/mL
11. B10  48.7 ng/mL
12. B3  49.7 ng/mL
13. B7  50.1 ng/mL
14. B11  51.3 ng/mL
15. B16  53.3 ng/mL
16. B8  59.7 ng/mL
